US20160068595A1

How the values were obtained:
[1] = target: human IL-20 (interleukin-20), recombinant (human) (UniProt Q9NYY1); experiment: SPR, BIAcore T100; antibody captured on anti-human IgG CM5 chip, IL-20 as analyte, 1:1 model
[2] = target: human IL-20 (interleukin-20), recombinant (human) (UniProt Q9NYY1); experiment: binding kinetics of CDR mutants; method not named

Chain of human IL-20 (interleukin-20), recombinant (human) (Q9NYY1 25-176 limits assumed): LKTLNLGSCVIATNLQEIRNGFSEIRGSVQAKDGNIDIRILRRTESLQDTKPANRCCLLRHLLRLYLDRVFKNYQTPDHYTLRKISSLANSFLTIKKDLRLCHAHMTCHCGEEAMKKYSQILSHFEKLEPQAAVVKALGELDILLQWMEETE

B1: HH12 humanized anti-IL-20 antibody (antibody, V domains shown)
VH: EVQLQESGGGLVQPGGSLRLSCAASGFTFSDAWMDWVRQAPGKGLEWVGEIRSKANNYATYFAESVKGRFTISRDDSKNSLYLQMNSLKTEDTGVYYCTKLSLRYWFFDVWGQGTLVTVSS
VL: DIQMTQSPLSLSVTPGQPASISCKSSQSLLDSDGKTYLNWYQQKPGQSPQLLIYLVSKLDSGVPDRFSGSGSGTDFTLKISRVEAEDVGVYYCWQSTHFPWTFGQGTKVEIKR
With B1 the Kd [1] was 2.68 nM, the koff [1] was 0.00358 s⁻¹ and the kon [1] was 1.34e+06 M⁻¹ s⁻¹. It also gave a Kd [2] of 2.68 nM, a koff [2] of 0.00358 s⁻¹ and a kon [2] of 1.34e+06 M⁻¹ s⁻¹.
